Consider one molecule from patent US8999894 (ALBERT EINSTEIN COLLEGE OF MEDICINE OF YESHIVA UNIVERSITY, dated 2015).

By Kd is commonly meant the free concentration of one partner at which half of the binding sites on the other are occupied at equilibrium, for simple one-to-one binding. By koff is commonly meant the first-order rate constant of dissociation.

Assay [1] addresses T1, recombinant E. coli DNA gyrase (E. coli, UniProt P0AES4 2-875; P0AES6 2-804). The assay is described as follows: cell-based or functional assay.
Assay [2] addresses T1, recombinant E. coli DNA gyrase. The assay is described as follows: SPR (BIAcore 3000), MfpA amine-coupled to CM5 chip, E. coli DNA gyrase as analyte, 1:1 Langmuir fit.

T1 sequence (P0AES4 2-875 limits assumed, one chain of several): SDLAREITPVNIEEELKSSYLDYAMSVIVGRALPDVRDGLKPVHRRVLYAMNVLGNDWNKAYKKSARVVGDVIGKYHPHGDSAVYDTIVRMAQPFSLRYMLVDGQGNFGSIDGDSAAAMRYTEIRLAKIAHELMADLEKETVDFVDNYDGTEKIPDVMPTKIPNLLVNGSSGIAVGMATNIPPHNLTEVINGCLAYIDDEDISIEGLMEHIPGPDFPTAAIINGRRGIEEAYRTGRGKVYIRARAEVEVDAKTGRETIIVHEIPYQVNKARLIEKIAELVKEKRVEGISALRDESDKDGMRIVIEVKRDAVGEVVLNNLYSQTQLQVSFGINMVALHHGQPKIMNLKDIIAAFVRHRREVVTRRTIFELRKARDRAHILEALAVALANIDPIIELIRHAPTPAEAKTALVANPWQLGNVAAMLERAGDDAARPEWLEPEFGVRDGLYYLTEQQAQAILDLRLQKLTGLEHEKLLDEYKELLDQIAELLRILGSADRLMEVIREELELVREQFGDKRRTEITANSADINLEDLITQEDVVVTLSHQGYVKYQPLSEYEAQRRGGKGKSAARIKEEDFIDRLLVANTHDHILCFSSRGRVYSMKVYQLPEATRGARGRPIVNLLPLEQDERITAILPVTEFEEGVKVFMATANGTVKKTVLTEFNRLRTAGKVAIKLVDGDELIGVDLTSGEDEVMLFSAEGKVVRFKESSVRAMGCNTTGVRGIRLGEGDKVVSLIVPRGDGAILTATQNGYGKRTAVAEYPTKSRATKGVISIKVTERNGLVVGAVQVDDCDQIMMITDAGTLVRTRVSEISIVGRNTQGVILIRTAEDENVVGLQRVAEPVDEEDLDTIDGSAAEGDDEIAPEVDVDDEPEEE

B1: Mycobacterium tuberculosis MfpA pentapeptide repeat protein (Rv3361c gene product) (other)
chain: QQWVDCEFTGRDFRDEDLSRLHTERAMFSECDFSGVNLAESQHRGSAFRNCTFERTTLWHSTFAQCSMLGSVFVACRLRPLTLDDVDFTLAVLGGNDLRGLNLTGCRLRETSLVDTDLRKCVLRGADLSGARTTGARLDDADLRGATVDPVLWRTASLVGARVDVDQAVAFAAAHGLCLA
notes: also called MtMfpA
On to B1, for which, in assay [1], the “inhibition of ATP-dependent DNA supercoiling by E. coli DNA gyrase, apparent IC50” value is approximately 1200 nM and the “inhibition of ATP-independent relaxation by E. coli DNA gyrase, apparent IC50” value is approximately 1200 nM. In assay [2], the Kd is 460 nM and the koff is approximately 0.0001 s⁻¹.
